Laboratory results published in PMC8229956.

Legend:
[1] = target: Oryza sativa TIR1 wild type with nuclear localisation signal (OsTIR1^WT-NLS) (Oryza sativa)
[2] = target: Oryza sativa TIR1 wild type with nuclear localisation signal (OsTIR1^WT-NLS) (Oryza sativa); remark: listed apart in the source

reduction in Rad52-AID-V5 protein level (anti-V5 immunoblot of total extract, normalised to tubulin) in cells expressing OsTIR1^WT in the absence of NAA, against rad52-AID-V5 cells with no OsTIR1 [1]	reduction in Mcm4-AID-V5 protein level (anti-V5 immunoblot of total extract, normalised to tubulin) in cells expressing OsTIR1^WT in the absence of NAA, against cells with no OsTIR1 [2]	Substance
14%		Rad52-AID-V5 (from UniProt P93830 1-229)
	14%	Mcm4-AID-V5 (from UniProt P93830 1-229)
